What all share (experiment): ITC; β16β17 at 25–50 μM in the cell titrated with 15–20 injections to 2–2.5 eq of α0α1; one-site binding model; PBS (50 mM sodium phosphate, 150 mM NaCl, pH 7.04), 25 °C; mutants only against the wild-type partner
Holding throughout (conditions): both partners purified

Test [1] concerns the target T1, β16β17 C9A (human, UniProt P11277 1898-2083, C2012A).
T1 construct: erythrocyte β-spectrin, human, residues 1898-2083 (β16β17); mutant of m2; also called C2012A; source: E. coli C41(DE3), purified (Ni2+ agarose, thrombin cleavage, gel filtration)
T1 sequence (looked up): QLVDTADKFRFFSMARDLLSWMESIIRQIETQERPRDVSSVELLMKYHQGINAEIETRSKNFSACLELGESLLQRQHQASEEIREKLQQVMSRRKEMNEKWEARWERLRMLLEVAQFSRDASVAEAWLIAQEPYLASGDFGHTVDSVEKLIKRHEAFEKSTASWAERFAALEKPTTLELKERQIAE

Test [2] addresses T2, β16β17 S57G (human, UniProt P11277 1898-2083, S2060G).
T2 construct: erythrocyte β-spectrin, human, residues 1898-2083 (β16β17); mutant of m2; also called S2060G; source: E. coli C41(DE3), purified (Ni2+ agarose, thrombin cleavage, gel filtration)
T2 sequence (looked up): T1 sequence (looked up) with A115C, S163G

For test [3], the target named is T3, β16β17 K43G (human, UniProt P11277 1898-2083, K2046G).
T3 construct: erythrocyte β-spectrin, human, residues 1898-2083 (β16β17); mutant of m2; also called K2046G; source: E. coli C41(DE3), purified (Ni2+ agarose, thrombin cleavage, gel filtration)
T3 sequence (looked up): T1 sequence (looked up) with A115C, K149G

The target of test [4] is T4, β16β17 K43A (human, UniProt P11277 1898-2083, K2046A).
T4 construct: erythrocyte β-spectrin, human, residues 1898-2083 (β16β17); mutant of m2; also called K2046A; source: E. coli C41(DE3), purified (Ni2+ agarose, thrombin cleavage, gel filtration)
T4 sequence (looked up): T1 sequence (looked up) with A115C, K149A

The target in test [5] is T5, β16β17 A20G (human, UniProt P11277 1898-2083, A2023G).
T5 construct: erythrocyte β-spectrin, human, residues 1898-2083 (β16β17); mutant of m2; also called A2023G; source: E. coli C41(DE3), purified (Ni2+ agarose, thrombin cleavage, gel filtration)
T5 sequence (looked up): T1 sequence (looked up) with A115C, A126G

Test [6] deals with T6, β16β17 A50G (human, UniProt P11277 1898-2083, A2053G).
T6 construct: erythrocyte β-spectrin, human, residues 1898-2083 (β16β17); mutant of m2; also called A2053G; source: E. coli C41(DE3), purified (Ni2+ agarose, thrombin cleavage, gel filtration)
T6 sequence (looked up): T1 sequence (looked up) with A115C, A156G

This passage reports Ka results from paper PMC9082959, “Mechanism of Assembly of the Non-Covalent Spectrin Tetramerization Domain from Intrinsically Disordered Partners” (Journal of molecular biology, 2013).

Changes are numbered by the printed parent chain.

B1: α0α1 (erythrocyte α-spectrin residues 2–163), wild type (domain or fragment, human, UniProt P02549 2-163, looked up)
chain: EQFPKETVVESSGPKVLETAEEIQERRQEVLTRYQSFKERVAERGQKLEDSYHLQVFKRDADDLGKWIMEKVNILTDKSYEDPTNIQGKYQKHQSLEAEVQTKSRLMSELEKTREERFTMGHSAHEETKAHIEELRHLWDLLLELTLEKGDQLLRALKFQQY
notes: synthetic gene (GenScript) in a modified pRSETA plasmid; also called α1α0; source: E. coli C41(DE3), purified (Ni2+ agarose, thrombin cleavage, gel filtration)
Turning to B1, the Ka amounted to 2.7e+06 M⁻¹ in test [1]; 900000 M⁻¹ in test [2]; 328000 M⁻¹ in test [3]; 1.8e+06 M⁻¹ in test [4]; 530000 M⁻¹ in test [5]; 163000 M⁻¹ in test [6].
